Laboratory results taken from patent US20190352365.

How the values were obtained:
[1] = target: T1, CBD-intein-Spacer(S)-TEV site-teriparatide fusion protein
T1 chain: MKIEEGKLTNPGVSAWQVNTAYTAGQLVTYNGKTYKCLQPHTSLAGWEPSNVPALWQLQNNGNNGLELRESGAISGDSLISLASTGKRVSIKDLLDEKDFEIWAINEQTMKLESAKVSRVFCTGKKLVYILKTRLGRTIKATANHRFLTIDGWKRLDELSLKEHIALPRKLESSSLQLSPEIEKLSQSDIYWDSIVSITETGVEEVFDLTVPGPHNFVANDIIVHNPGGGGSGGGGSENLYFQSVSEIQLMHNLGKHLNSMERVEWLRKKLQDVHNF

[2] = target: T2, CBD-intein-S-TEV site-liraglutide fusion protein
T2 chain: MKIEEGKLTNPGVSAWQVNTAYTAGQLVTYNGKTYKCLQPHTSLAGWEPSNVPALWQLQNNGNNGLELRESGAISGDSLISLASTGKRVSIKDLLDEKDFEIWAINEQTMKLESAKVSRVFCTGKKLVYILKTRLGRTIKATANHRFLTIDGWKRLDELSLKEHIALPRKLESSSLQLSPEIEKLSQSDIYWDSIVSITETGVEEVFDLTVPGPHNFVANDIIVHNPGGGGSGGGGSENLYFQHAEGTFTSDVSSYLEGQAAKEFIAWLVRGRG

B1: TEV protease (protein)
chain: GESLFKGPRDYNPISSTICHLTNESDGHTTSLYGIGFGPFIITNKHLFRRNNGTLLVQSLHGVFKVKNTTTLQQHLIDGRDMIIIRMPKDFPPFPQKLKFREPQREERICLVTTNFQTKSMSSMVSDTSCTFPSSDGIFWKHWIQTKDGQCGSPLVSTRDGFIVGIHSASNFTNTNNYFTSVPKNFMELLTNQEAQQWVSGWRLNADSVLWGGHKVFMSKPEEPFQPVKEATQLMNELVYSQ
[1]
  TEV protease-mediated cleavage of the fusion protein (SDS-PAGE and western blot, pH 8.0 and pH 7.0): cleavage by the TEV protease resulted in the release of teriparitide
[2]
  TEV protease-mediated cleavage of the fusion protein (SDS-PAGE, pH 8.0): cleavage by the TEV protease resulted in the release of liraglutide
